Assay results published in patent US20170224833A1, “SELF-ASSEMBLING MOLECULES THAT ACCUMULATE IN ACIDIC TUMOR MICROENVIRONMENTS” (OHIO STATE INNOVATION FOUNDATION, priority 2014, published 2017).
Residues, ends and D or L forms follow the SMILES beside them. *: point of attachment. Palmitoyl = CCCCCCCCCCCCCCCC(=O)*

Tests used:
[1] = pH titration of peptide amphiphiles (pKa); format: physicochemical; settings: 10 μM
Experimental: The titration measurements were conducted on 10 μM peptide amphiphile solutions prepared in 150 mM NaCl and 2.2 mM CaCl2 using milli-Q water. The solution was heated at 80° C. for 30 minutes followed by slow cooling at room temperature. The pH of the solution was then adjusted to 4 using HCl. Finally, an Accumet XL15 pH meter (Fisher Scientific) coupled with an Orion Ross Ultra semi-micro electrode (8103BNUWP, Thermo Scientific) was used to track changes in pH of the solution as NaOH solution was added in small increments. pKa values were obtained from the second inflection points of the first derivative plots of the titration data. The first transition corresponds to neutralization of excess HCl. The calculated pKas reflect the average pKa for all four glutamic acids.

[2] = Critical aggregation concentration (CAC), pyrene 1:3 method; format: physicochemical
Experimental: For the CAC measurements, a series of solutions of the PA with concentrations ranging from 10 nM to 300 μM were prepared using serial dilutions in 150 mM NaCl and 2.2 mM CaCl2. The final concentration of pyrene in each solution was fixed to be 1.23 μM. This was followed by pH adjustment of the solutions using careful additions of HCl or NaOH. 70 μL of each solution was transferred to a 96-well plate and the fluorescence emission of pyrene was monitored using a hybrid reader fluorimeter (BioTek Synergy H4) at room temperature. The excitation wavelength was set at 335 nm. The ratio of the intensities of emissions at 376 nm and 392 nm were then plotted as a function of the PA concentration (log scale). The CAC was determined from an abrupt change in the slope of the plot using the least-squares fitting technique.
For CAC measurements, a series of solutions of either pure PA or PA mixture with concentrations ranging from 100-300 nM to 500-700 μM were prepared using serial dilutions in 150 mM NaCl and 2.2 mM CaCl2 (and 1.8 mM 20 kDa PEG in select samples). The final concentration of pyrene in each solution was fixed to be 4.5 μM. This was followed by pH adjustment of the solutions using careful additions of HCl or NaOH. 100 µL of each solution was transferred to a 96-well plate and the fluorescence emission of pyrene was monitored using a hybrid reader fluorimeter (BioTek Synergy H4) at room temperature. The excitation wavelength was set at 335 nm. The ratio of the intensities of emissions at 376 nm and 392 nm were then plotted as a function of the PA concentration (log scale). The CAC was determined from an abrupt change in the slope of the plot using the least-squares fitting technique.
The pyrene 1:3 method was used to determine CAC for the PAs (Aguiar, J., et al. J. Colloid Interface Sci. 2003 258:116-122). For both PA71 and PA68, CAC measurements were performed at various pH values (5-10). Samples of high PA concentration (300-750 μM) were prepared in deionized water containing 150 mM NaCl and 2.2 mM CaCl2. These samples were raised to 9 or greater pH using NaOH and heated at 80° C. for 30 minutes. Samples were then allowed to cool to room temperature and pH was altered to the desired value using dilute NaOH and HCl. Solutions containing only aqueous 150 mM NaCl and 2.2 mM CaCl2 and solutions containing these salts, a 1:1 solution of water and methanol, and 62 μM pyrene were also prepared. Each of these solutions was divided into various portions and adjusted to appropriate pH values. The PA solutions were serially diluted with the corresponding salt solutions with a total of 125 μL at each concentration. 5 μL of the pyrene containing solution as added to each dilution for a final pyrene concentration of 2.4 μM. Each diluted sample was probed for fluorescence with an excitation wavelength of 335 nm. Fluorescence was recorded with particular attention paid to the 376 nm and 392 nm emission peaks. The ratio of these two peaks was plotted versus PA concentration on a log scale. The CAC was determined from an abrupt change in the slope of the plot using the least-squares fitting technique.
Critical aggregation concentration (CAC) measurements were carried out to determine the concentration at which micelles or nanofibers begin to form by using the pyrene 1:3 method, (citation) All samples were basified to a pH of 10, stirred at 90° C. for 30 minutes in an oil bath and cooled to room temperature. HCl and NaOH were then added to set the PA solution specific pH value. PAs with concentrations ranging from 100 μM to 500 μM were serial diluted with 150 mM NaCl and 2.2 mM CaCl2. A pyrene solution was then added to each of the diluted samples, for a final pyrene concentration of 4.5 μM. 100 μL of each serial diluted sample were transferred into a 96-well plate and the fluorescence emission of the pyrene was monitored by a hybrid reader fluorimeter (BioTek Synergy H4) at room temperature with an excitation wavelength of 335 nm. […]

[3] = MRI r1 relaxivity measurement, 1.5 Tesla; format: physicochemical; settings: 500 μM, 1.5 T
Experimental: An MR relaxometry phantom was built by fixing 5 mm NMR sample tubes containing PA samples at a concentration of 500 μM and pH values 4 and 10 in a 600 ml beaker filled with deionized water. The samples also contained 150 mM NaCl and 2.2 mM CaCl2. The phantom was scanned on a 1.5 Tesla Signa Excite MRI scanner using an 8-channel phased-array head coil (GE Healthcare, Milwaukee, Wis., USA). R relaxometry data were acquired using an Inversion Recovery Fast Spin-Echo (IR-FSE) sequence with the following parameters: inversion time TI=50/100/200/400/600/800/1200/1600/3200 ms; repetition time TR=8000 ms; echo time TE=11 ms; echo train length=10; 90° flip angle; 100×100 mm^2 field-of-view (FOV); 0.5 mm in-plane resolution; 2 mm slice thickness; single coronal slice placed at the center of the phantom. Sample longitudinal relaxation rates (R1) were calculated by fitting the MR signal intensities observed at different TIs (S(TI)) to a three parameter model [Lu et al., MRM 2004]:
S(TI)=|S0×(1−C×exp(−TI×R1))|
Where S0 is the equilibrium signal, C is a constant accounting for imperfect inversion of magnetization. The r1 relaxivity was calculated as the slope in the linear relationship between sample concentrations and their R1 relaxation rates.

[4] = 150 mM NaCl, 2.2 mM CaCl2; previously found (Ghosh 2012); cited from earlier work
[5] = pH 5, 150 mM NaCl, 2.2 mM CaCl2

CCCCCCCCCCCCCCCC(=O)N[C@H](C(=O)N[C@@H](C)C(=O)N[C@@H](C)C(=O)N[C@@H](C)C(=O)N[C@@H](CCC(=O)O)C(=O)N[C@@H](CCC(=O)O)C(=O)N[C@@H](CCC(=O)O)C(=O)N[C@@H](CCC(=O)O)C(N)=O)[C@@H](C)CC [PA1] (Palmitoyl-IAAAEEEE-NH2)
glutamic acids in the deprotonated form at the transition [1]: 98.8% | critical aggregation concentration (CAC) ([2]; pH 6.6): 6.0 µM

CCCCCCCCCCCCCCCC(=O)N[C@@H](C)C(=O)N[C@H](C(=O)N[C@@H](C)C(=O)N[C@@H](C)C(=O)N[C@@H](CCC(=O)O)C(=O)N[C@@H](CCC(=O)O)C(=O)N[C@@H](CCC(=O)O)C(=O)N[C@@H](CCC(=O)O)C(N)=O)[C@@H](C)CC [PA68] (Palmitoyl-AIAAEEEE-NH2)
CAC, times lower than PA1 ([2]; comparable pH values): 3-5 | CAC [2, 5]: 1.1 µM | CAC ([2]; pH 10, 150 mM NaCl, 2.2 mM CaCl2): 7.5 µM

Palmitoyl-AAAIEEEE-NH2 (SMILES CCCCCCCCCCCCCCCC(=O)N[C@@H](C)C(=O)N[C@@H](C)C(=O)N[C@@H](C)C(=O)N[C@H](C(=O)N[C@@H](CCC(=O)O)C(=O)N[C@@H](CCC(=O)O)C(=O)N[C@@H](CCC(=O)O)C(=O)N[C@@H](CCC(=O)O)C(N)=O)[C@@H](C)CC) [PA70]
aggregation state by pyrene 1:3 method ([2]; all pH and concentration values): in the aggregated state across all pH and concentration values

Palmitoyl-AIAAEEEEK(DO3A:Gd)-NH2 (Palmitoyl-AIAAEEEEK(DO3A)-NH2; also: DO3A chelates Gd) [PA71]
CAC (below the detectable limit) ([2]; all pH values tested except pH 10): 200 to 300 nM | CAC [2, 5]: 1.3 µM | CAC, fold lower than PA5 ([2]; pH ~7): > 6

Palmitoyl-IAAAEEEEK(DO3A:Gd)-NH2 (Palmitoyl-IAAAEEEEK(DO3A)-NH2; also: DO3A chelates Gd) [PA5]
relaxivity of water protons ([3]; pH 4 (nanofibers)): 8.3 mM⁻¹ s⁻¹ | relaxivity of water protons ([3]; pH 10 (spherical micelles)): 6.6 mM⁻¹ s⁻¹ | pH of concentration independent transition from spherical micelles to nanofibers [4]: 6.0

palmitoyl-YYAAEEEEEK(DO3A:Gd)-NH2 (Palmitoyl-YYAAEEEEEK(DO3A)-NH2; also: DO3A chelates Gd) [PA74]
CAC higher than PA75 ([2]; pH 6): ~500% | CAC ([2]; pH 7.06): 9.3 µM | CAC higher than PA75 ([2]; pH 8): 5% | CAC ([2]; pH 9.02): 21.6 µM
